These results are taken from article PMC8405992 (2021).

What all share (test): NMR titration
One experiment addresses K11-linked diubiquitin (Homo sapiens, UniProt P0CG48).
In a further experiment the target is T1, Dsk2-UBL 2-77 (Saccharomyces cerevisiae, UniProt P48510).
T1 chain: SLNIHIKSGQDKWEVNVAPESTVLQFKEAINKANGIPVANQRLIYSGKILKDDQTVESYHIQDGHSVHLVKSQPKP

The next experiment has as its target T2, Ubp6-UBL 2-81 (Saccharomyces cerevisiae, UniProt P43593).
T2 chain: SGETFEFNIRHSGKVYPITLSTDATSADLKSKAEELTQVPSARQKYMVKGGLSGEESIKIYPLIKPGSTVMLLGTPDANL

The next experiment concerns the target K48-linked diubiquitin (Homo sapiens, UniProt P0CG48).

B1: Rpn1 214-324 (protein)
chain: HNGEEDAVDLLLEIESIDKLPQFVDENTFQRVCQYMVACVPLLPPPEDVAFLKTAYSIYLSQNELTDAIALAVRLGEEDMIRSVFDATSDPVMHKQLAYILAAQKTSFEYE
modifications: K11-linked Ub2, distal Ub 15N-enriched
In general, Kd refers to the concentration at which binding is half-saturated. Molecule B1 registered a Kd with K11-linked diubiquitin of 42 µM.

B2: Rpn1 214-355 (protein)
chain: HNGEEDAVDLLLEIESIDKLPQFVDENTFQRVCQYMVACVPLLPPPEDVAFLKTAYSIYLSQNELTDAIALAVRLGEEDMIRSVFDATSDPVMHKQLAYILAAQKTSFEYEGVQDIIGNGKLSEHFLYLAKELNLTGPKVPE
For B2, the Kd with Dsk2-UBL 2-77 was found to be 48 µM; with Ubp6-UBL 2-81, 104 µM.

B3: Rpn1 214-355 (protein)
chain: B2 chain
modifications: K11-linked Ub2, distal Ub 15N-enriched
Molecule B3 had a Kd with K11-linked diubiquitin of 44 µM.

B4: Rpn1 214-355 (protein)
chain: B2 chain
modifications: K48-linked Ub2, distal Ub 15N-enriched
In the case of B4, the Kd with K48-linked diubiquitin was found to be 288 µM.
